Values of other authors as cited in paper PMC8087844.

Biological target: IL2R alpha (CD25) (Homo sapiens) (UniProt P01589)
Chain of UniProt P01589 (P01589 22-240): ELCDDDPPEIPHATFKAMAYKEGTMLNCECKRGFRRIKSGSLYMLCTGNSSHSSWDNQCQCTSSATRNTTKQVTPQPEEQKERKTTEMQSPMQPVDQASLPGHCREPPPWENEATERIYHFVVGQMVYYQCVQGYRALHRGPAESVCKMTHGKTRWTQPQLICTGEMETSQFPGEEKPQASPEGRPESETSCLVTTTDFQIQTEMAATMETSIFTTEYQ

Kd: 0.3 nM
Substance: Daclizumab
